Assay results published in patent US6254870, “Thrombopoietin: IL-3 fusion protein” (G. D. Searle & Co., dated 2001).

B1: 1-332 c-mpl ligand P(46)L, W(200)R (pMON26451-4) (ligand)
chain: SPAPPACDLRVLSKLLRDSHVLHSRLSQCPEVHPLPTPVLLPAVDLSLGEWKTQMEETKAQDILGAVTLLLEGVMAARGQLGPTCLSSLLGQLSGQVRLLLGALQSLLGTQLPPQGRTTAHKDPNAIFLSFQHLLRGKVRFLMLVGGSTLCVRRAPPTTAVPSRTSLVLTLNELPNRTSGLLETNFTASARTTGSGLLKRQQGFRAKIPGLLNQTSRSLDQIPGYLNRIHELLNGTRGLFPGPSRRTLGAPDISSGTSDTGSLPPNLQPGYSPSPTHPPTPLLPDPSAPTPTPTSPLLNTSYTHSQNLSQEG
B2: 1-332 Δ112-115 c-mpl ligand (pMON26451-3) (ligand)
chain: SPAPPACDLRVLSKLLRDSHVLHSRLSQCPEVHPLPTPVLLPAVDFSLGEWKTQMEETKAQDILGAVTLLLEGVMAARGQLGPTCLSSLLGQLSGQVRLLLGALQSLLGTQGRTTAHKDPNAIFLSFQHLLRGKVRFLMLVGGSTLCVRRAPPTTAVPSRTSLVLTLNELPNRTSGLLETNFTASARTTGSGLLKWQQGFRAKIPGLLNQTSRSLDQIPGYLNRIHELLNGTRGLFPGPSRRTLGAPDISSGTSDTGSLPPNLQPGYSPSPTHPPTGQYTLFPLPPTLPTPVVQLHPLLPDPSAPTPTPTSPLLNTSYTHSQNLSQEG
B3: 1-153 Δ112-115 c-mpl ligand (pMON26450) (ligand)
chain: SPAPPACDLRVLSKLLRDSHVLHSRLSQCPEVHPLPTPVLLPAVDFSLGEWKTQMEETKAQDILGAVTLLLEGVMAARGQLGPTCLSSLLGQLSGQVRLLLGALQSLLGTQGRTTAHKDPNAIFLSFQHLLRGKVRFLMLVGGSTLCVR
B4: 1-153 c-mpl ligand (pMON26448) (ligand)
chain: SPAPPACDLRVLSKLLRDSHVLHSRLSQCPEVHPLPTPVLLPAVDFSLGEWKTQMEETKAQDILGAVTLLLEGVMAARGQLGPTCLSSLLGQLSGQVRLLLGALQSLLGTQLPPQGRTTAHKDPNAIFLSFQHLLRGKVRFLMLVGGSTLCVR

Target: T1, human c-mpl-R (human, UniProt P40238)
Assay: cell-based or functional assay

Binder	TF1 Proliferation Assay: total counts tritiated thymidine incorporation, 10% supernatants [total counts]
B1	122000
B2	35600
B3	60800
B4	115000

Target: T1, human c-mpl-R
Assay: cell-based or functional assay
Remark: another data set of the same source

Binder	Bone Marrow Proliferation Assay: Cells/Well after 10 Day Culture of CD34+ enriched cells [cells/well]
B1	16000
B2	< 500
B3	< 500
B4	22500
